What follows are sequences tested against HLA-A*24:02 (assay: IEDB peptide-MHC binding, purified MHC/direct/fluorescence; filed as Kd, often an IC50 or EC50 that approximates it; ≥ and ≤ were set here for values at or beyond the usual limits of such assays). Conditions: source organism: Francisella tularensis subsp. tularensis SCHU S4.
LYQPLLDLL showed a Kd of 30 nM.
SYTFTQTFF showed a Kd of 24 nM.
For SYSYLVYLI, the Kd was 3 nM.
In the case of RYTDSEYFVI, the Kd is reported as 15 nM.
WYTNLDTDKF was tested, and the Kd was 255 nM.
Work on TYTSTLHPRL yielded a Kd of 200 nM.
For IYNNYDVLF, the Kd was 23 nM.
In the case of SYDRWGIPI, the Kd is reported as 33 nM.
With LYSENGHFSW the Kd was 18 nM.
With NYVDSAQLAF the Kd was 9 nM.
Sequence NYNNLDDKF has a Kd of 3 nM.
Sequence IFWQFHQLL has a Kd of 10 nM.
IYSDKGLLF was tested, and the Kd was 4 nM.
NYQKWTAPL showed a Kd of 5 nM.
For YYLDRGYLDF, the Kd was 10 nM.
In the case of TYPNSQQQTL, the Kd is reported as 180 nM.
AYVKNGYFEI gave a Kd of 76 nM.
PYLKSFLSF was tested, and the Kd was 20 nM.
KYWNNHRQGI showed a Kd of 435 nM.
PYLKQGIEF showed a Kd of 8 nM.

The sequences below were run against HLA-A*02:01 in the same assay as above. Conditions: source organism: Francisella tularensis.
QLVGRVFAGL was tested, and the Kd was 2 nM.

Same assay, conditions: source organism: Francisella tularensis subsp. tularensis SCHU S4
Work on WLGNHGFEV yielded a Kd of no more than 1 nM.
In the case of IMSSFEFQV, the Kd is reported as no more than 1 nM.
Work on NLDTSPFFV yielded a Kd of no more than 1 nM.
QLWPEEIGV gave a Kd of no more than 1 nM.
Sequence KLLGQINLV has a Kd of no more than 1 nM.
Work on FLSPNQVTNV yielded a Kd of no more than 1 nM.
LMWDNVGLV gave a Kd of no more than 1 nM.
In the case of GIDGNVTFTV, the Kd is reported as no more than 1 nM.
KLAKKVLSRV showed a Kd of 10 nM.
ILLPWFVDL showed a Kd of no more than 1 nM.
GLNLVVSSSV gave a Kd of 20 nM.
Sequence KLWGLVDFV has a Kd of no more than 1 nM.
Work on ILDPKTGLV yielded a Kd of 15 nM.
In the case of KLLPEGYWV, the Kd is reported as no more than 1 nM.
Work on RLIGHISTL yielded a Kd of no more than 1 nM.
With WLGETFHGL the Kd was no more than 1 nM.
Work on FLSNVGHYV yielded a Kd of no more than 1 nM.
FLMPFMHYIV gave a Kd of no more than 1 nM.
VLPGVVVPIV was tested, and the Kd was 15 nM.
Work on GTDGFPFKL yielded a Kd of 24 nM.
Work on KIDSTSFSV yielded a Kd of no more than 1 nM.
For KLGGYVSFV, the Kd was no more than 1 nM.

The sequences below were run against HLA-B*07:02 in the same assay as above. Conditions: source organism: Francisella tularensis.
Work on APFANTYSAL yielded a Kd of 22 nM.

Same assay, conditions: source organism: Francisella tularensis subsp. tularensis SCHU S4
FPINLNSSQL was tested, and the Kd was 62 nM.
For APYPNVVEM, the Kd was 127 nM.
FPATGQNIYM showed a Kd of 588 nM.
For SPMGPLAVSF, the Kd was 18 nM.
SPMEHSKRI showed a Kd of 62 nM.
FPKAFINIV showed a Kd of 151 nM.
IPMTLTASPL was tested, and the Kd was 4 nM.
For FPICSTYKFL, the Kd was 226 nM.
TPNGNIPTL showed a Kd of 46 nM.
For MPVSRQISRM, the Kd was 665 nM.
SPQANNLYL gave a Kd of 74 nM.
With FPICSVFKFL the Kd was 251 nM.
With VPRKPLLSYI the Kd was 38 nM.
With LPRYNIATSV the Kd was 3 nM.
APAFVVIADL was tested, and the Kd was 114 nM.
IPRTMLPLSL gave a Kd of 3 nM.

The sequences below were run against HLA-B*07:02 (assay: IEDB peptide-MHC binding, purified MHC/competitive/fluorescence; filed as Kd, often an IC50 or EC50 that approximates it; ≥ and ≤ were set here for values at or beyond the usual limits of such assays). Conditions: source organism: Francisella tularensis subsp. tularensis SCHU S4.
For FPQANLTGGI, the Kd was 2140 nM.
APAWFQASA showed a Kd of no less than 5000 nM.
Work on FPNINFSPEV yielded a Kd of no less than 5000 nM.
